# B1: PTPRD (parent)
# chain: PVVSMDLDPQPITDEEEGLIWVVG
# B2: C9orf9 (parent)
# chain: TKHKCRQLTKASLKPRGCSKPPWR
# Variants of: B1
# Test: protein stability index of a GFP-peptide fusion (GPS, HEK-293T) (PSI 1-6); higher = more stable
# Conditions: c terminus: a fixed tail appended
# 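Note: lentivirally expressed fusions sorted by FACS into six bins by GFP to DsRed ratio, PSI derived from sequencing read proportions per bin multiplied by bin number.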
row,Variant,protein stability index
1,G24H,3.87
2,G24E,3.77
3,G24D,4.45
4,G24I,1.54
5,G24M,2.87
6,G24F,1.34
7,G24L,1.51
8,G24W,1.41
9,G24K,4.06
10,G24T,3.21
11,G24V,1.7
12,G24N,4.15
13,G24Q,3.55
14,G24Y,3.09
15,G24S,3.36
16,G24C,1.85
17,I12Y,2.86
18,I12C,3.66
19,I12D,4.52
20,I12S,3.64
21,I12H,4.07
22,I12V,4.28
23,I12N,4.28
24,I12R,4.74
25,I12F,2.78
26,I12M,3.75

row,Variant,protein stability index
1,I12G,4.49
2,I12E,4.94
3,I12K,4.84
4,I12L,3.95
5,E17I,1.8
6,E17N,3.37
7,E17D,4.26
8,E17P,2.38
9,E17Y,1.38
10,E17G,3.34
11,E17C,2.25
12,E17M,1.69
13,E17V,1.75
14,E17T,3.31
15,E17R,2.75
16,E17L,2.56
17,E17S,2.88
18,E17K,3.12
19,E17A,2.26
20,E17Q,4.18
21,V22T,4.26
22,V22C,3.9
23,V22H,4.85
24,V22Q,4.63
25,V22L,3.94
26,V22R,3.89

row,Variant,protein stability index
1,V22D,5.28
2,V22N,4.37
3,V22Y,5.12
4,V22G,4.92
5,V22K,4.57
6,V22F,2.54
7,V22E,5.47
8,V22S,4.7
9,V22W,3.79
10,G18E,4.22
11,G18L,3.16
12,G18C,2.63
13,G18R,3.28
14,G18Y,2.27
15,G18S,3.98
16,G18M,2
17,G18K,3.72
18,G18N,4.42
19,G18D,4.59
20,G18H,3.52
21,G18Q,3.37
22,G18P,3.19
23,P11A,4.67
24,P11H,3.8
25,P11Q,4.39
26,P11K,3.68

row,Variant,protein stability index
1,P11Y,2.67
2,P11N,3.36
3,P11F,3.25
4,P11M,4.27
5,P11I,2.93
6,P11C,3.36
7,P11T,3.77
8,T13P,3.36
9,T13D,4.13
10,T13I,2.71
11,T13C,3.84
12,T13S,3.13
13,T13Y,2.9
14,T13V,3.58
15,T13L,3.07
16,T13A,3.87
17,T13N,3.87
18,T13W,2.47
19,E15R,3.57
20,E15D,2.31
21,E15T,2.33
22,E15N,3.67
23,E15W,1.61
24,E15G,3.21
25,E15S,2.9
26,E15Q,3.77

row,Variant,protein stability index
1,E15P,3.19
2,E15K,3.16
3,E15C,3.25
4,D14R,2.31
5,D14M,2.36
6,D14N,3.9
7,D14S,4.05
8,D14L,2.06
9,D14F,2.14
10,D14I,4.15
11,D14C,2.9
12,D14E,3.78
13,D14Y,2.27
14,D14A,2.58
15,D14G,3.87
16,E16S,3.36
17,E16C,1.94
18,E16T,2.87
19,E16P,2.79
20,E16Q,3.79
21,E16W,2.27
22,E16H,3.2
23,E16F,1.07
24,E16D,4.08
25,E16V,1.5
26,E16Y,2.79

row,Variant,protein stability index
1,E16A,3.22
2,V23S,5.01
3,V23G,5.27
4,V23T,4.93
5,V23H,4.93
6,V23C,3.9
7,V23M,4.55
8,V23P,4.97
9,V23R,5.03
10,V23Y,4.4
11,V23N,4.45
12,V23A,4.67
13,V23L,3.06
14,V23D,5.36
15,L19T,4.91
16,L19F,3.65
17,L19W,3.37
18,L19N,4.57
19,L19E,4.54
20,L19V,3.56
21,L19A,4.6
22,L19Q,3.66
23,L19S,4.21
24,W21V,4.27
25,W21C,4.69
26,W21F,4.08

row,Variant,protein stability index
1,W21T,4.69
2,W21I,3.62
3,W21D,5.06
4,W21Y,4.1
5,W21A,6
6,W21Q,5.18
7,W21S,5.43
8,W21L,3.33
9,W21H,5.47
10,I20L,2.99
11,I20Q,4.95
12,I20D,4.8
13,I20S,4.64
14,I20P,5.16
15,I20K,4.64
16,I20N,4.31
17,I20H,4.32
18,I20G,4.92
19,I20E,5.35
20,I20V,4.87

# Variants of: B2
# Test: as above
# Conditions: c terminus: a fixed tail appended
row,Variant,protein stability index
1,R6M,2.19
2,R6H,3.25
3,R6C,2.6
4,R6K,2.76
5,R6P,1.91
6,R6Y,3.72
7,R6S,2.59
8,R6Q,3.1
9,R6L,2.56
10,R6W,2.46
11,R6G,3.22
12,R6T,2.4
13,R6E,3.17
14,R6N,2.78
15,R6I,1.86
16,R6D,3.03
17,R6V,2.84
18,A11E,2.27
19,A11D,2.81
20,A11C,2.23
21,L8F,3.24
22,L8M,2.62
23,L8K,3.02

row,Variant,protein stability index
1,L8W,2.43
2,L8C,2.89
3,L8D,3.07
4,L8A,3.21
5,L8N,3.04
6,L8H,2.98
7,L8I,2.37
8,L8S,3.12
9,L8P,4.04
10,L8R,3.54
11,L8Y,2.35
12,L8E,3.62
13,L8G,2.58
14,L8T,3.22
15,H3R,3.11
16,H3W,2.42
17,H3T,2.83
18,H3F,2.27
19,H3S,3.02
20,H3C,1.44
21,H3Y,3.08
22,H3P,3.03
23,H3D,3.12

row,Variant,protein stability index
1,H3K,3.09
2,H3E,2.77
3,Q7V,1.97
4,Q7L,1.29
5,Q7Y,2.72
6,Q7G,2.75
7,Q7A,2.96
8,Q7I,2.08
9,Q7T,2.06
10,Q7H,2.5
11,Q7P,3.14
12,Q7F,1.63
13,Q7S,3.27
14,Q7R,2.56
15,Q7D,4.68
16,Q7E,2.73
17,Q7K,3.27
18,Q7N,3.14
19,Q7C,2.17
20,Q7M,2.14
21,K10L,2.21
22,K10W,2.46
23,K10E,1.74

row,Variant,protein stability index
1,K10F,2.58
2,K10N,2.8
3,K10Y,2.53
4,K10P,2.71
5,K10Q,2.77
6,K10M,2.38
7,K10S,3.07
8,K10T,3.42
9,K10D,1.94
10,K10I,2.73
11,K10R,3.59
12,K10H,2.11
13,C5S,2.87
14,C5A,3.24
15,C5Q,3.33
16,C5L,2.2
17,C5Y,2.88
18,C5T,2.24
19,C5E,3.12
20,C5F,2.4
21,C5W,2.17
22,C5K,3.65
23,C5H,2.44

row,Variant,protein stability index
1,C5G,2.21
2,C5N,2.15
3,C5D,3.56
4,C5V,2.88
5,C5R,3.76
6,C5M,1.84
7,T1D,3.22
8,T1R,3.56
9,T1S,2.96
10,T1W,1.77
11,T1P,3.06
12,T1A,3.08
13,T1Q,2.46
14,T1L,2.44
15,T1K,2.62
16,T1F,3.6
17,T1G,3.17
18,T1I,2.59
19,T1C,2.45
20,T1M,2.64
21,T1Y,2.09
22,T1E,2.52
23,T1N,3.18

row,Variant,protein stability index
1,T9V,2.92
2,T9M,2.48
3,T9H,2.47
4,T9P,3.18
5,T9A,2.2
6,T9S,2.27
7,T9W,2.25
8,T9Y,3.38
9,T9G,2.56
10,T9F,4.48
11,T9I,2.22
12,T9N,3.87
13,T9K,3.57
14,T9Q,3.14
15,T9L,2.17
16,K4V,2.25
17,K4A,2.94
18,K4G,2.83
19,K4H,2.66
20,K4C,1.91
21,K4F,1.82
22,K4R,2.45
23,K4P,2.21

row,Variant,protein stability index
1,K4Q,2.88
2,K4T,2.67
3,K4N,2.78
4,K4L,1.72
5,K4S,2.9
6,K4Y,1.95
7,K4I,1.99
8,K4M,2.15
9,K2D,3.81
10,K2N,2.78
11,K2M,2.16
12,K2P,4.64
13,K2G,3.88
14,K2A,1.36
15,K2C,2.68
16,K2Y,2.1
17,K2S,4.18
18,K2T,2.27
19,K2W,2.57
20,K2I,1.64
